B1: FLAG-MKK6 (enzyme, UniProt P52564 1-334, looked up)
chain: MSQSKGKKRNPGLKIPKEAFEQPQTSSTPPRDLDSKACISIGNQNFEVKADDLEPIMELGRGAYGVVEKMRHVPSGQIMAVKRIRATVNSQEQKRLLMDLDISMRTVDCPFTVTFYGALFREGDVWICMELMDTSLDKFYKQVIDKGQTIPEDILGKIAVSIVKALEHLHSKLSVIHRDVKPSNVLINALGQVKMCDFGISGYLVDSVAKTIDAGCKPYMAPERINPELNQKGYSVKSDIWSLGITMIELAILRFPYDSWGTPFQQLKQVVEEPSPQLPADKFSAEFVDFTSQCLKKNSKERPTYPELMQHPFFTLHESKGTDVASFVKLILGD
notes: Bought from Addgene; not shown: FLAG tag
B2: zD20 (palmitoyl acyl transferase) expressed in HEK293 cells (enzyme, UniProt Q5W0Z9 1-365, looked up)
chain: MAPWTLWRCCQRVVGWVPVLFITFVVVWSYYAYVVELCVFTIFGNEENGKTVVYLVAFHLFFVMFVWSYWMTIFTSPASPSKEFYLSNSEKERYEKEFSQERQQEILRRAARALPIYTTSASKTIRYCEKCQLIKPDRAHHCSACDSCILKMDHHCPWVNNCVGFSNYKFFLLFLLYSLLYCLFVAATVLEYFIKFWTNELTDTRAKFHVLFLFFVSAMFFISVLSLFSYHCWLVGKNRTTIESFRAPTFSYGPDGNGFSLGCSKNWRQVFGDEKKYWLLPIFSSLGDGCSFPTRLVGMDPEQASVTNQNEYARSSGSNQPFPIKPLSESKNRLLDSESQWLENGAEEGIVKSGTNNHVTVAIEN
notes: Immunoprecipitated like myc-zD17
B3: endogenous JNK1 of rat cortical neuronal cultures (enzyme, UniProt P49185 1-411, looked up)
chain: MSRSKRDNNFYSVEIADSTFTVLKRYQNLKPIGSGAQGIVCAAYDAILERNVAIKKLSRPFQNQTHAKRAYRELVLMKCVNHKNIIGLLNVFTPQKSLEEFQDVYIVMELMDANLCQVIQMELDHERMSYLLYQMLCGIKHLHSAGIIHRDLKPSNIVVKSDCTLKILDFGLARTAGTSFMMTPYVVTRYYRAPEVILGMGYKENVDLWSVGCIMGEMVCLKILFPGRDYIDQWNKVIEQLGTPCPEFMKKLQPTVRTYVENRPKYAGYSFEKLFPDVLFPADSEHNKLKASQARDLLSKMLVIDASKRISVDEALQHPYINVWYDPSEAEAPPPKIPDKQLDEREHTIEEWKELIYKEVMDLEERTKNGVIRGQPSPLGAAVINGSQHPVSSPSVNDMSSMSTDPTLASD
B4: zD15 (palmitoyl acyl transferase) expressed in HEK293 cells (enzyme, UniProt Q96MV8 1-337, looked up)
chain: MRRGWKMALSGGLRCCRRVLSWVPVLVIVLVVLWSYYAYVFELCLVTVLSPAEKVIYLILYHAIFVFFTWTYWKSIFTLPQQPNQKFHLSYTDKERYENEERPEVQKQMLVDMAKKLPVYTRTGSGAVRFCDRCHLIKPDRCHHCSVCAMCVLKMDHHCPWVNNCIGFSNYKFFLQFLAYSVLYCLYIATTVFSYFIKYWRGELPSVRSKFHVLFLLFVACMFFVSLVILFGYHCWLVSRNKTTLEAFCTPVFTSGPEKNGFNLGFIKNIQQVFGDKKKFWLIPIGSSPGDGHSFPMRSMNESQNPLLANEETWEDNEDDNQDYPEGSSSLAVETET
notes: as for B2
B5: endogenous JNK3 of rat cortical neuronal cultures and rat brain (enzyme, UniProt P49187 1-464, looked up)
chain: MSLHFLYYCSEPTLDVKIAFCQGFDKHVDVSSVVKHYNMSKSKVDNQFYSVEVGDSTFTVLKRYQNLKPIGSGAQGIVCAAYDAVLDRNVAIKKLSRPFQNQTHAKRAYRELVLMKCVNHKNIISLLNVFTPQKTLEEFQDVYLVMELMDANLCQVIQMELDHERMSYLLYQMLCGIKHLHSAGIIHRDLKPSNIVVKSDCTLKILDFGLARTAGTSFMMTPYVVTRYYRAPEVILGMGYKENVDIWSVGCIMGEMVRHKILFPGRDYIDQWNKVIEQLGTPCPEFMKKLQPTVRNYVENRPKYAGLTFPKLFPDSLFPADSEHNKLKASQARDLLSKMLVIDPAKRISVDDALQHPYINVWYDPAEVEAPPPQIYDKQLDEREHTIEEWKELIYKEVMNSEEKTKNGVVKGQPSPSGAAVNSSESLPPSSSVNDISSMSTDQTLASDTDSSLEASAGPLGCCR
B6: GFP-JNK3 (c-jun N-terminal kinase 3) expressed in HEK293 cells (enzyme, UniProt P53779 1-464, looked up)
chain: B5 chain with H27Q, S32Y, V33I, V34A
notes: not shown: GFP tag and linker of the gifted construct (Song et al. 2006)

Test [1] concerns the target T1, myc-tagged full-length palmitoyl acyl transferase zinc-finger DHHC type containing 17 (zD17) (UniProt Q8IUH5 1-632).
T1 construct: range 1-632; Expressed in HEK293 cells (myc-zD17) or purified from E. coli as GST-myc-zD17 and freed of GST with thrombin; also called myc-zD17; zD17 wildtype
Briefly: co-immunoprecipitation, HEK293 cells.
Experimental: (§1) For co-immunoprecipitation, cultured cells were washed with ice-cold PBS followed by incubation with 0.5 ml Gentle Lysis Buffer (GLB) containing 25 mM Tris-HCl (pH 7.4), 2 mM EDTA, 1 mM EGTA, 10 mM NaCl, 0.5% Triton X-100 and 10% Glycerol supplemented with the Complete Protease Inhibitor Tablets (Roche Applied Science™, Indianapolis, Ind., USA) and 1 mM PMSF. Total protein concentration was determined with the BioRad™ Protein Assay kit. Lysates were first precleaned by incubating with Protein A-Sepharose beads (Roche Applied Science™) for 1 h at 4° C., followed by incubation with indicated antibodies (>16 h at 4° C.) and protein A Sepharose bead (2 h at 4° C.). Lysates of rat brain tissues were precleaned with IgG and protein A-beads. […] The relative intensities of the bands on immunoblots were analyzed and quantified using Image J™ (NIH).

The target of test [2] is B6. Briefly: co-immunoprecipitation, HEK293 cells.
Experimental: as §1
In test [3] the target is T2, endogenous zD17 of rat cortical neuronal cultures and rat brain (rat, UniProt E9PTT0 1-622).
T2 construct: Co-immunoprecipitated from lysates of Wistar rat cortical cultures or Sprague-Dawley rat brain
Briefly: co-immunoprecipitation, neuronal cultures treated with glutamate.

Test [4] concerns the target T2, endogenous zD17 of rat cortical …. Briefly: co-immunoprecipitation, neuronal cultures treated with TNF-α (50 ng/ml, 6 h).
Experimental: as §1
The target is the same in test [5]. In words: co-immunoprecipitation, neuronal cultures treated with NMDA.
The target is the same in test [6]. Briefly: co-immunoprecipitation, neuronal cultures treated with IL-1β (10 ng/ml, 16 h).
Experimental: as §1
Test [7] concerns the target T3, FLAG-MKK7 wt (UniProt O14733 1-419, limits assumed).
T3 construct: Bought from Addgene; also called MKK7 wildtype; not shown: FLAG tag
T3 sequence (looked up): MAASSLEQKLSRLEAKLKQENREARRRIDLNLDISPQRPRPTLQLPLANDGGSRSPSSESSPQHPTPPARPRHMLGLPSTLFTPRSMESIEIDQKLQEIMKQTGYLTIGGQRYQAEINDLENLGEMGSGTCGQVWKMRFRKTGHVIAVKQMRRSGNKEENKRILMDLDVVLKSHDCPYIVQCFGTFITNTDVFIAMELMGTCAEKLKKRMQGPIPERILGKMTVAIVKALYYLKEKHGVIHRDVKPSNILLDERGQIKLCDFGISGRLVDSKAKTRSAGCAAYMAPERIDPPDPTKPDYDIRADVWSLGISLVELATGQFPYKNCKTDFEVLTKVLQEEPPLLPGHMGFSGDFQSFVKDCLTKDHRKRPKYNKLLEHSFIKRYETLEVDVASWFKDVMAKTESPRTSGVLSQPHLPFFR
In words: co-immunoprecipitation, with against without zD17.

Changes are numbered by the printed parent chain.

T2 sequence (E9PTT0 whole entry): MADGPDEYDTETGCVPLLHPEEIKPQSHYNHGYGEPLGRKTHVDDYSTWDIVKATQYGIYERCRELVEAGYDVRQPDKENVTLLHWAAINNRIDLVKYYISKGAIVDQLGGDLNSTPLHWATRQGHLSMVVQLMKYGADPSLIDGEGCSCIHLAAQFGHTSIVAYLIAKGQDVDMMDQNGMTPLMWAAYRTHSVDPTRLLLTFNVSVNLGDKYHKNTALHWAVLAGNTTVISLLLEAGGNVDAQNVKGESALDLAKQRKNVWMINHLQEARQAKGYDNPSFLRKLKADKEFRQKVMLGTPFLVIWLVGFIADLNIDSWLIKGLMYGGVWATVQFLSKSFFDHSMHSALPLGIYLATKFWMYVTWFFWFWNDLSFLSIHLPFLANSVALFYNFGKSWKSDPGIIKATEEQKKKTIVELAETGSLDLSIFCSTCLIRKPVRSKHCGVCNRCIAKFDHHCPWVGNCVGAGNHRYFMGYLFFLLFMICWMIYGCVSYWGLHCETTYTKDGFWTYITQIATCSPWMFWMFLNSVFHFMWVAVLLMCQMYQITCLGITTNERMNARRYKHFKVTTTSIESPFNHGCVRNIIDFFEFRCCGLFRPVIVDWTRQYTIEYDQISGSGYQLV
T1 sequence (Q8IUH5 whole entry): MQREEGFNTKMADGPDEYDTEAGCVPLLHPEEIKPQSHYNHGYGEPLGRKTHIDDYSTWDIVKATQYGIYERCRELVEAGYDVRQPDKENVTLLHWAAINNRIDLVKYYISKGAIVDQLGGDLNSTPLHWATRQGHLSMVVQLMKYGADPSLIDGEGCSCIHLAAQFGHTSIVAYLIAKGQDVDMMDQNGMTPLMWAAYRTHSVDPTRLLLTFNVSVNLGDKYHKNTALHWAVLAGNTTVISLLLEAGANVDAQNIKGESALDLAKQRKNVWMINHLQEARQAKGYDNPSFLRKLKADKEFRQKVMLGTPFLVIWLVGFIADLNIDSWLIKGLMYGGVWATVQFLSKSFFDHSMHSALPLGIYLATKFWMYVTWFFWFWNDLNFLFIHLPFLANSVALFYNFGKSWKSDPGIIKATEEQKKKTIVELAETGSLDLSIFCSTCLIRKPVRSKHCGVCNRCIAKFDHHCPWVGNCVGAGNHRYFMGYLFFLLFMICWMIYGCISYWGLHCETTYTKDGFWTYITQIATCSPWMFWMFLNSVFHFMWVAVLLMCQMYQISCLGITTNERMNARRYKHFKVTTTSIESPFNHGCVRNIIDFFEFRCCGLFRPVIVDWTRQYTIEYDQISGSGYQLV

In the case of B1, the binding result in test [1] is listed as “no binding”.
For the molecule B2, the binding result in test [2] is recorded as “no binding”.
In the case of B3, the “fold increase of zD17 interaction compared with control” value in test [3] worked out at 1.4 fold.
For the molecule B4, the binding result in test [2] was “no binding”.
Turning to B5, the “fold increase of zD17-JNK3 interaction against control” value in test [4] was determined as 1.53 fold; in test [6], 1.88 fold. The entries for the “fold increase of zD17 interaction compared with control” value in test [5] and in test [3] were 2.5 fold and 2.6 fold, respectively.
B6: the “fold enhancement of the JNK3-MKK7 association in the presence of zD17” value in test [7] came to 2.41 fold.

Source of the values: patent publication US20150225704A1 (UNIVERSITY OF BRITISH COLUMBIA, published 2015).
